Results: paper doi:10.1101/2025.11.07.687251, “Reconstitution of multistep recruitment of ULK1 to membranes in autophagy” (bioRxiv, 2025)

How the values were obtained:
[1] = biological target: T1, MBP-mCherry-ULK1(291–828) (human, UniProt O75385 291-828); experiment: pull-down; microscopy-based bead assay (Fig. S3): GST-ATG13(6–196)/ATG101 as bait on GSH beads; MBP-mCherry-ULK1 fragments added separately; mCherry on the beads imaged; settings: both partners purified
T1 construct: ULK1, human, intrinsically disordered region, residues 291-828 (no kinase domain, no EAT domain); also called mCherry-ULK1 ^ΔKDΔEAT (291–828); ULK1 IDR; source: purified (amylose resin); not shown: mCherry, N-terminal, kept
T1 sequence (looked up): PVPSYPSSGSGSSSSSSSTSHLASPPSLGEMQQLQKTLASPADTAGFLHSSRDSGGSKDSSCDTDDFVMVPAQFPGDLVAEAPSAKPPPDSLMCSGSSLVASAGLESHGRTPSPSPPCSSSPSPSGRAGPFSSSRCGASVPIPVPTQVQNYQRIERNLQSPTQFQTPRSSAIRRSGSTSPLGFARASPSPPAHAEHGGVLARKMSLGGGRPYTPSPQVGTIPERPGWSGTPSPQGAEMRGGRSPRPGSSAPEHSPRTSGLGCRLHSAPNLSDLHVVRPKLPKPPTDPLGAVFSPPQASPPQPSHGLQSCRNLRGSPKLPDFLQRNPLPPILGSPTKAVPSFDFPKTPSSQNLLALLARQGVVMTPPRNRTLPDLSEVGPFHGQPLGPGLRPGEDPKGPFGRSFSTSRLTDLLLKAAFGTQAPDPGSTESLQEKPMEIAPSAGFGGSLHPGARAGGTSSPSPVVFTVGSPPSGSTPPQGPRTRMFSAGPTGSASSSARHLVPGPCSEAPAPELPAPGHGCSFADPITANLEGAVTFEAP

[2] = biological target: T2, mcherry-ATG13(1–230)/TSF-ATG101 (human, UniProt O75143 1-230; Q9BSB4 1-218); experiment: pull-down; microscopy-based bead assay (Fig. 5e): GST-GFP-ULK1(415–464) (WT or ADA) as bait on GSH beads; mcherry-ATG13(1–230)/TSF-ATG101 as prey; mCherry channel quantified; settings: both partners purified
T2 construct: ATG13, human; ATG101, human, wild type; TSF-tagged proteins in general were purified on Strep-Tactin Sepharose; also called mCherry-ATG13^HD:TSF-ATG101; mCherry-ATG13^HD:ATG101; not shown: mCherry, N-terminal, kept
T2 sequence (looked up) 1: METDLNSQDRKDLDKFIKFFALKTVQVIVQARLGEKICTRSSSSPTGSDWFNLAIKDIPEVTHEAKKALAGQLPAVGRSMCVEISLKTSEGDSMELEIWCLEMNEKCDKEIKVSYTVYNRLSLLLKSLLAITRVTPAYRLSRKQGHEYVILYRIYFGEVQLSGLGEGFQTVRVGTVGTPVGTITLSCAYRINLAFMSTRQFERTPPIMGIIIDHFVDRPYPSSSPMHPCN
T2 sequence (looked up) 2: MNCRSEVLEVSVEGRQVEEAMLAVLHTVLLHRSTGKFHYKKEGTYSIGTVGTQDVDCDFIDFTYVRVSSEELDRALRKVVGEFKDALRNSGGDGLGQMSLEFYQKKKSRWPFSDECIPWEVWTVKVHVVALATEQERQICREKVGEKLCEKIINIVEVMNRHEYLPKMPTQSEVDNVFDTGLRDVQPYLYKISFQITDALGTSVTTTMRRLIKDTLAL

Binder	binding result [1]	binding result [2]
GST-ATG13(6–196)/ATG101 (complex, human, ATG101, human, wild type; no tag is named; also called GST-ATG13^HD:ATG101; ATG13^HD:ATG101; source: HEK293T-GNTI- cells, transfected (PEI), purified (GSH resin, S200 SEC); not shown: GST, N-terminal, kept) chain 1: NSQDRKDLDKFIKFFALKTVQVIVQARLGEKICTRSSSSPTGSDWFNLAIKDIPEVTHEAKKALAGQLPAVGRSMCVEISLKTSEGDSMELEIWCLEMNEKCDKEIKVSYTVYNRLSLLLKSLLAITRVTPAYRLSRKQGHEYVILYRIYFGEVQLSGLGEGFQTVRVGTVGTPVGTITLSCAYRINLAFM chain 2: MNCRSEVLEVSVEGRQVEEAMLAVLHTVLLHRSTGKFHYKKEGTYSIGTVGTQDVDCDFIDFTYVRVSSEELDRALRKVVGEFKDALRNSGGDGLGQMSLEFYQKKKSRWPFSDECIPWEVWTVKVHVVALATEQERQICREKVGEKLCEKIINIVEVMNRHEYLPKMPTQSEVDNVFDTGLRDVQPYLYKISFQITDALGTSVTTTMRRLIKDTLAL	binds	–
SGRAGPFSSSRCGASVPIPVPTQVQNYQRIERNLQSPTQFQTPRSSAIRR (domain or fragment, human, UniProt O75385 415-464, looked up, ULK1, human, IDR fragment with the PVP motif, residues 415-464; GST-tagged proteins in general were purified on GSH resin; also called GST-tagged fragment of the ULK1 IDR encompassing residues 415–464; not shown: GST, N-terminal, kept; GFP, N-terminal, kept) [GST-GFP-ULK1(415–464)]	–	binds
